Patent publication EP0311108A2, “Anti-HIV active 3'-azido-2,6-diaminopurine-2',3'-dideoxyriboside” (Stichting REGA V.Z.W., priority 1987, dated 1989)

Legend:
[1] = substrate: Nc1nc(N)c2ncn([C@@H]3O[C@H](CO)[C@@H](O)[C@@H]3O)c2n1; assay: purified protein, by the assay type; settings: other: substrate of ADA
[2] = substrate: [N-]=[N+]=N[C@H]1C[C@H](n2cnc3c(N)nc(N)nc32)O[C@@H]1CO; assay: Deamination by adenosine deaminase (substrate kinetics); assay type: biochemical, beef; settings: other: substrate of ADA
Excerpt: Several ddDAPR analogues were examined for their sus­ceptibility to deamination by beef intestine adenosine de­aminase (ADA).

B1: beef intestine adenosine deaminase (ADA) (Bos taurus) (protein)
chain: MAQTPAFNKPKVELHVHLDGAIKPETILYYGRKRGIALPADTPEELQNIIGMDKPLSLPEFLAKFDYYMPAIAGCREAVKRIAYEFVEMKAKDGVVYVEVRYSPHLLANSKVEPIPWNQAEGDLTPDEVVSLVNQGLQEGERDFGVKVRSILCCMRHQPSWSSEVVELCKKYREQTVVAIDLAGDETIEGSSLFPGHVKAYAEAVKSGVHRTVHAGEVGSANVVKEAVDTLKTERLGHGYHTLEDATLYNRLRQENMHFEVCPWSSYLTGAWKPDTEHPVVRFKNDQVNYSLNTDDPLIFKSTLDTDYQMTKNEMGFTEEEFKRLNINAAKSSFLPEDEKKELLDLLYKAYGMPSPASAEQCL
notes: Kinetic properties of beef intestine adenosine deaminase; from tissue; host or cells: beef intestine
- Km [1]: 83 µM
- Vmax [1]: 5.9 µmole/mg protein/min
- Km [2]: 11 µM
- Vmax [2]: 40 µmole/mg protein/min
